This is an account of results in article PMC4434712 (Proceedings of the National Academy of Sciences of the …, 2015).

Holding throughout (assay): crystal structure
In test [1] the target is T1, VZV glycoprotein gL (varicella-zoster virus, UniProt P09308).
Test [2] addresses T2, VZV glycoprotein gH (ectodomain, as in the gHgL crystal structures) (varicella-zoster virus, UniProt P09260).
For test [3], the target named is T1, VZV glycoprotein gL. This is another data set of the same source.
In test [4] the target is T2, VZV glycoprotein gH (ectodomain, as in …). The source holds these as a separate data set.

Like-named read-outs stand apart in the source and are kept apart here.

T1 sequence (P09308 22-159): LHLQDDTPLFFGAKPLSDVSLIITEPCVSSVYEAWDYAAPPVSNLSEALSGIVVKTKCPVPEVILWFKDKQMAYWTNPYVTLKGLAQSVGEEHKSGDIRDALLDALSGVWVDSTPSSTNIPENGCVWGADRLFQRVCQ
T2 sequence (P09260 18-795): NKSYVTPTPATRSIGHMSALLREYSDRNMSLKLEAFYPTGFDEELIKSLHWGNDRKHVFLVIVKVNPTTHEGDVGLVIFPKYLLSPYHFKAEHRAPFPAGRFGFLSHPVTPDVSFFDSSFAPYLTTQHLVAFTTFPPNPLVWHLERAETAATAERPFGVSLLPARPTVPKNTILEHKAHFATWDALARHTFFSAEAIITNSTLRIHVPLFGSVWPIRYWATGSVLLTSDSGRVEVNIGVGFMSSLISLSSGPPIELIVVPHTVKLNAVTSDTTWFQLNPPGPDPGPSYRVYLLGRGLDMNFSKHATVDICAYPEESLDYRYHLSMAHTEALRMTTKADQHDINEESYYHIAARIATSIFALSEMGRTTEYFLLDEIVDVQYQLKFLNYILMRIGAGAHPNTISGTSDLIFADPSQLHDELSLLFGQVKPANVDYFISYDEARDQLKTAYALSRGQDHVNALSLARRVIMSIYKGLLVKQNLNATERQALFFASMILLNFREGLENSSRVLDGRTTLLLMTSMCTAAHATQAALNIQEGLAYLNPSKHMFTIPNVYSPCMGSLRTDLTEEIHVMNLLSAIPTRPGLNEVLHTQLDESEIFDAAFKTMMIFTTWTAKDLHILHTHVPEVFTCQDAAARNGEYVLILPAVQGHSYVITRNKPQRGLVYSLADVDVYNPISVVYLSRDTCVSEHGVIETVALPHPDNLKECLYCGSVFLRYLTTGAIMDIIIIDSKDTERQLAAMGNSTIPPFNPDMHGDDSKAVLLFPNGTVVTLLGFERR

B1: Fab-RC, Fab fragment of the human monoclonal antibody IgG-RC (Fab, V domains shown)
VH: QVQLVQSGAEMKKPGASVKVSCKASGYTFIGYHLHWVRQAPGQGLEWMGWINPNSGETNYAQKFQDWVTMTRDTSINTAYMELRLRSDDTAVYYCARGGMTMVRGVMMDWGQGTLVTVSS
VL: DIQMTQSPSFLSASVGDRVTITCRASQGLDNFLAWYQQKPGKAPKLLIYAASTLQRGVPSRFGGSGSGTEFTLTISSLQPEDFATYYCQQLNSYSLTFGPGTKVEIK
With B1, the binding result (with VZV glycoprotein gL [1]; in test [2]) was “binds” each time.

B2: Fab-94, Fab fragment of the human monoclonal antibody IgG-94 (Fab, V domains shown)
VH: EVQLVESGGGVVQPGRSLRLSCGASGFTFNTYAMHWVRQAPGKGVEWVAVVSDGGGNRYYAASVKGRFTISRDNSKNTLFLQLNTLRPEDTAVYYCARSRGNHYYYGMDVWGRGTTVTVSS
VL: DIQMTQSPSSVSASVGDRVTITCRASQGISSWLAWYQQKPGKAPKLLIYAASSLQSGVPSRFSGSGSGTDFTLTISSLQPEDFATYYCQQANNFPLTFGGGTKVEIK
B2: the binding result (with VZV glycoprotein gL [3]; in test [4]) was “binds” throughout.
